This note sets out measurements from patent US20130217685, “COMPOUNDS FOR MODULATING RNA BINDING PROTEINS AND USES THEREFOR” (UNIVERSITY OF MASSACHUSETTS, published 2013).

For this data set, the target named is T1, MEX-5 TZF domain (236-350) (Caenorhabditis elegans, UniProt Q9XUB2 Q9XUB2:236-350).
T1 sequence: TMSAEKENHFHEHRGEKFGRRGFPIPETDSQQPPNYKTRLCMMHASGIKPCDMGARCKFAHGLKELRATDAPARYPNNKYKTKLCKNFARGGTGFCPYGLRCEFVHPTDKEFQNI
Nature of the data set: EMSA; 120 nM protein, 2-3 nM RNA; compound dose response (compound E IC50 2.0 uM). Particulars: tags: N-terminal MBP (pMal-c, NEB); ORFeome clone, Open Biosystems; label: 3'-fluorescein. On the procedure: A further dose response assay was performed on select compounds of the invention as described below. A sub-saturating concentration of MEX-5 or POS-1 (120 nM) was equilibrated with limiting fluorescein labeled RNA (2-3 nM, TCR2 RNA or MEX-3 UTR fragment RNA respectively) in the presence of varying concentrations of compound. Following equilibration, the reactions were loaded onto a 5% slab polyacrylamide gel and subjected to electrophoresis for about 1 hour to separate protein-RNA complex from free RNA. The gel was scanned on a FUJI FLA-5000 imager, and the fraction of bound RNA determined by dividing the intensity of the bound RNA by the intensity of the bound RNA plus the free RNA. The fraction of […] was plotted as a function of compound concentration and fit to a sigmoidal dose response function in order to determine the IC₅₀, the concentration that gives half maximal inhibition.

Take UUUCUUUAUAACUUGUUACAAUUUUUGAAA (ssRNA) [TCR2]: the binding result was “binds”.
